Test results from IntAct's records for PubMed 21041660.

B1: Cell division control protein 6 homolog (Homo sapiens), Q99741 (parent)
chain: MPQTRSQAQATISFPKRKLSRALNKAKNSSDAKLEPTNVQTVTCSPRVKALPLSPRKRLGDDNLCNTPHLPPCSPPKQGKKENGPPHSHTLKGRRLVFDNQLTIKSPSKRELAKVHQNKILSSVRKSQEITTNSEQRCPLKKESACVRLFKQEGTCYQQAKLVLNTAVPDRLPAREREMDVIRNFLREHICGKKAGSLYLSGAPGTGKTACLSRILQDLKKELKGFKTIMLNCMSLRTAQAVFPAIAQEICQEEVSRPAGKDMMRKLEKHMTAEKGPMIVLVLDEMDQLDSKGQDVLYTLFEWPWLSNSHLVLIGIANTLDLTDRILPRLQAREKCKPQLLNFPPYTRNQIVTILQDRLNQVSRDQVLDNAAVQFCARKVSAVSGDVRKALDVCRRAIEIVESDVKSQTILKPLSECKSPSEPLIPKRVGLIHISQVISEVDGNRMTLSQEGAQDSFPLQQKILVCSLMLLIRQLKIKEVTLGKLYEAYSKVCRKQQVAAVDQSECLSLSGLLEARGILGLKRNKETRLTKVFFKIEEKEIEHALKDKALIGNILATGLP

Variants of: B1
Settings: with cdk1_human CDK1, P06493
Chain of cdk1_human CDK1, P06493 (P06493 whole entry, looked up): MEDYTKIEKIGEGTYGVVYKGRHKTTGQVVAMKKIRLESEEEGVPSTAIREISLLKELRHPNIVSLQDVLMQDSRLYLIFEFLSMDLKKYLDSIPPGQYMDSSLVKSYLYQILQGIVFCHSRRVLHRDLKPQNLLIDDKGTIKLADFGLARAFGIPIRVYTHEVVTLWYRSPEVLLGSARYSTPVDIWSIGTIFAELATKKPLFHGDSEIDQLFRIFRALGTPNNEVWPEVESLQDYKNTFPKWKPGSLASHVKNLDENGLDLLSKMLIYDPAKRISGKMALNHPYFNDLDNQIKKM

effect of a mutation on the interaction	Variant
disrupting interaction	MPQTRSQAQATISFPKRKLSRALNKAKNSSDAKLEPVNVQTVTCSPRVKALPLSPRKRLGDDNLCNTPHLPPCSPPKQGKKENGPPHSHTLKGRRLVFDNQLTIKSPSKRELAKVHQNKILSSVRKSQEITTNSEQRCPLKKESACVRLFKQEGTCYQQAKLVLNTAVPDRLPAREREMDVIRNFLREHICGKKAGSLYLSGAPGTGKTACLSRILQDLKKELKGFKTIMLNCMSLRTAQAVFPAIAQEICQEEVSRPAGKDMMRKLEKHMTAEKGPMIVLVLDEMDQLDSKGQDVLYTLFEWPWLSNSHLVLIGIANTLDLTDRILPRLQAREKCKPQLLNFPPYTRNQIVTILQDRLNQVSRDQVLDNAAVQFCARKVSAVSGDVRKALDVCRRAIEIVESDVKSQTILKPLSECKSPSEPLIPKRVGLIHISQVISEVDGNRMTLSQEGAQDSFPLQQKILVCSLMLLIRQLKIKEVTLGKLYEAYSKVCRKQQVAAVDQSECLSLSGLLEARGILGLKRNKETRLTKVFFKIEEKEIEHALKDKALIGNILATGLP [T37V]

Variants of: B1
Settings: with plk1_human PLK1, P53350
Chain of plk1_human PLK1, P53350 (P53350 whole entry): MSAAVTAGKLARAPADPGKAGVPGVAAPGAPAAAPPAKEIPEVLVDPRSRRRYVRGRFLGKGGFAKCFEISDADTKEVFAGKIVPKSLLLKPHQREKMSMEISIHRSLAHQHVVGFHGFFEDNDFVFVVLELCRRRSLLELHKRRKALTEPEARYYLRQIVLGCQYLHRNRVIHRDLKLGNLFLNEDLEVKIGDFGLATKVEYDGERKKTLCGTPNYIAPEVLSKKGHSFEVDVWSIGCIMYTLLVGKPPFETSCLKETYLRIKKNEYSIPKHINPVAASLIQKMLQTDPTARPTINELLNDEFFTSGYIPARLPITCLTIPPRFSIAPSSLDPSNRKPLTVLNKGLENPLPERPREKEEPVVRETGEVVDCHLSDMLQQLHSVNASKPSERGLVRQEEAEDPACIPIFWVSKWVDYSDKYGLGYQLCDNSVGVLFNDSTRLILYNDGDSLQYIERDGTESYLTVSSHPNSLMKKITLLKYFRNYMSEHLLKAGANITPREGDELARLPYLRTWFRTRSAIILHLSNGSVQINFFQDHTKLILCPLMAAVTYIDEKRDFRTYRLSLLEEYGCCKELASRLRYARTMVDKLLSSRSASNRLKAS

effect of a mutation on the interaction	Variant
disrupting interaction	MPQTRSQAQATISFPKRKLSRALNKAKNSSDAKLEPVNVQTVTCSPRVKALPLSPRKRLGDDNLCNTPHLPPCSPPKQGKKENGPPHSHTLKGRRLVFDNQLTIKSPSKRELAKVHQNKILSSVRKSQEITTNSEQRCPLKKESACVRLFKQEGTCYQQAKLVLNTAVPDRLPAREREMDVIRNFLREHICGKKAGSLYLSGAPGTGKTACLSRILQDLKKELKGFKTIMLNCMSLRTAQAVFPAIAQEICQEEVSRPAGKDMMRKLEKHMTAEKGPMIVLVLDEMDQLDSKGQDVLYTLFEWPWLSNSHLVLIGIANTLDLTDRILPRLQAREKCKPQLLNFPPYTRNQIVTILQDRLNQVSRDQVLDNAAVQFCARKVSAVSGDVRKALDVCRRAIEIVESDVKSQTILKPLSECKSPSEPLIPKRVGLIHISQVISEVDGNRMTLSQEGAQDSFPLQQKILVCSLMLLIRQLKIKEVTLGKLYEAYSKVCRKQQVAAVDQSECLSLSGLLEARGILGLKRNKETRLTKVFFKIEEKEIEHALKDKALIGNILATGLP [T37V]
